Results as given in article PMC3117669 (The Biochemical journal, 2010).
Where “and” joins values, the source holds several entries; their conditions need not be identical. Identical values can stand only once.

Columns and labels:
[1] = biological target: T1, GST-lipin 1b (1-641) (mouse, UniProt Q91ZP3 1-641); test: pull-down
T1 sequence (looked up): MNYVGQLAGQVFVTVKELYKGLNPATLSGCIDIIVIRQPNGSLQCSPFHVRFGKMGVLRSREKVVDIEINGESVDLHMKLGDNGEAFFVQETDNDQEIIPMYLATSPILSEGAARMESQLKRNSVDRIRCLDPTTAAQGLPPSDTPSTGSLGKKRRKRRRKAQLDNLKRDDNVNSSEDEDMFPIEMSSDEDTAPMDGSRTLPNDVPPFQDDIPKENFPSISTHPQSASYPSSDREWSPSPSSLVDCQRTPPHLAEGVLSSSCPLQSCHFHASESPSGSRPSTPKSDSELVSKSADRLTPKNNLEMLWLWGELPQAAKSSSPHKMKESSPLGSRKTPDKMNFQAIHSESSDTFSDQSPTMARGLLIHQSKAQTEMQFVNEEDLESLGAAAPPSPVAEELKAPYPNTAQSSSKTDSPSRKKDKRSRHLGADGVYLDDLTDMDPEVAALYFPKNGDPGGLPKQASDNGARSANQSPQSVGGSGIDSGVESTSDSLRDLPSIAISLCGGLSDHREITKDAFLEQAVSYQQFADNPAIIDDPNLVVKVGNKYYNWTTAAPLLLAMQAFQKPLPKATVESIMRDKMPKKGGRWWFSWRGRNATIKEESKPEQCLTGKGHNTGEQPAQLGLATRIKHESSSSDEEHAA

[2] = biological target: T2, V5-lipin 1b (469-924), immunopurified (mouse, UniProt Q91ZP3 469-924); test: pull-down
T2 sequence (looked up): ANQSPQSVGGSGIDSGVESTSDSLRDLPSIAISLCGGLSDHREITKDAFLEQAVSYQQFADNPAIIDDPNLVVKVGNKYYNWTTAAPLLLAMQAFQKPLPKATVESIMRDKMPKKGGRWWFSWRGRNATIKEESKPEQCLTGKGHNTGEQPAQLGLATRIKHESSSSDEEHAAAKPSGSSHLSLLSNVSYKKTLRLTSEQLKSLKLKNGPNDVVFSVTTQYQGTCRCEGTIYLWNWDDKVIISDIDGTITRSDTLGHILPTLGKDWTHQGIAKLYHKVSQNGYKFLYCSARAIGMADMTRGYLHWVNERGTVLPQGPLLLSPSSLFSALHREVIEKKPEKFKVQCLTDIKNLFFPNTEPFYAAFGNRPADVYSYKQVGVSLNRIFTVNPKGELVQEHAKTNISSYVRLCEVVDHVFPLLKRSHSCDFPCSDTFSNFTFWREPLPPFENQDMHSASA

[3] = biological target: the molecule itself; test: native gel or EMSA

B1: V5-lipin 1b (1-171), immunopurified (domain or fragment, mouse, UniProt Q91ZP3 1-171, looked up)
chain: MNYVGQLAGQVFVTVKELYKGLNPATLSGCIDIIVIRQPNGSLQCSPFHVRFGKMGVLRSREKVVDIEINGESVDLHMKLGDNGEAFFVQETDNDQEIIPMYLATSPILSEGAARMESQLKRNSVDRIRCLDPTTAAQGLPPSDTPSTGSLGKKRRKRRRKAQLDNLKRDD
[1]
  binding result: binds

B2: GST-lipin 1b (642-924) (domain or fragment, mouse, UniProt Q91ZP3 642-924, looked up)
chain: AKPSGSSHLSLLSNVSYKKTLRLTSEQLKSLKLKNGPNDVVFSVTTQYQGTCRCEGTIYLWNWDDKVIISDIDGTITRSDTLGHILPTLGKDWTHQGIAKLYHKVSQNGYKFLYCSARAIGMADMTRGYLHWVNERGTVLPQGPLLLSPSSLFSALHREVIEKKPEKFKVQCLTDIKNLFFPNTEPFYAAFGNRPADVYSYKQVGVSLNRIFTVNPKGELVQEHAKTNISSYVRLCEVVDHVFPLLKRSHSCDFPCSDTFSNFTFWREPLPPFENQDMHSASA
[2]
  binding result: binds

B3: lipin 1b-V5 (HEK293A) (natural protein, mouse, UniProt Q91ZP3 1-924, looked up)
chain: MNYVGQLAGQVFVTVKELYKGLNPATLSGCIDIIVIRQPNGSLQCSPFHVRFGKMGVLRSREKVVDIEINGESVDLHMKLGDNGEAFFVQETDNDQEIIPMYLATSPILSEGAARMESQLKRNSVDRIRCLDPTTAAQGLPPSDTPSTGSLGKKRRKRRRKAQLDNLKRDDNVNSSEDEDMFPIEMSSDEDTAPMDGSRTLPNDVPPFQDDIPKENFPSISTHPQSASYPSSDREWSPSPSSLVDCQRTPPHLAEGVLSSSCPLQSCHFHASESPSGSRPSTPKSDSELVSKSADRLTPKNNLEMLWLWGELPQAAKSSSPHKMKESSPLGSRKTPDKMNFQAIHSESSDTFSDQSPTMARGLLIHQSKAQTEMQFVNEEDLESLGAAAPPSPVAEELKAPYPNTAQSSSKTDSPSRKKDKRSRHLGADGVYLDDLTDMDPEVAALYFPKNGDPGGLPKQASDNGARSANQSPQSVGGSGIDSGVESTSDSLRDLPSIAISLCGGLSDHREITKDAFLEQAVSYQQFADNPAIIDDPNLVVKVGNKYYNWTTAAPLLLAMQAFQKPLPKATVESIMRDKMPKKGGRWWFSWRGRNATIKEESKPEQCLTGKGHNTGEQPAQLGLATRIKHESSSSDEEHAAAKPSGSSHLSLLSNVSYKKTLRLTSEQLKSLKLKNGPNDVVFSVTTQYQGTCRCEGTIYLWNWDDKVIISDIDGTITRSDTLGHILPTLGKDWTHQGIAKLYHKVSQNGYKFLYCSARAIGMADMTRGYLHWVNERGTVLPQGPLLLSPSSLFSALHREVIEKKPEKFKVQCLTDIKNLFFPNTEPFYAAFGNRPADVYSYKQVGVSLNRIFTVNPKGELVQEHAKTNISSYVRLCEVVDHVFPLLKRSHSCDFPCSDTFSNFTFWREPLPPFENQDMHSASA
[3]
  stoichiometry N: 2 and 4
